From patent publication US7670806B2, “ADP-ribosyl acceptor hydrolase 3 (ARH3) polypeptides and methods of use” (The United States of America as represented by the …, priority 2005, dated 2010)
Entries after “also recorded” stand apart in the source; their conditions may differ.

Experiment: Poly(ADP-ribose) hydrolysis (autoradiography, high resolution PAGE, HPLC)
Format: biochemical
Details: [32P]poly(ADP-ribose) or poly(ADP-ribose)PARP; 37° C.; autoradiography / PAGE / HPLC
Protocol: Poly(ADP-ribose) hydrolysis by autoradiography. [^32P]poly(ADP-ribose)PARP (500 ng of PARP with poly(ADP-ribose) was incubated (37° C., 2 h) with 2 μM ARH in 25 μl of 50 mM potassium phosphate buffer, pH 7.5, with or without 10 mM MgCl2 and/or 5 mM DTT. Reactions were stopped by adding 6 μl of 5× Laemmli buffer. Samples (20 μl) of proteins were separated by SDS-PAGE in 4-20% gels and transferred to nitrocellulose membranes that were exposed to X-ray film (Kodak) for 10 h.
Hydrolysis of poly(ADP-ribose) by PARG and ARH3. Purified [^32P] poly(ADP-ribose) (5.5×10^5 cpm, ˜300 nM ADP-ribose) was incubated for the indicated time at 37° C. in 25 μl of 50 mM potassium phosphate, pH 7.5, containing 10 mM MgCl2 and 5 mM DTT with enzyme or other additions as indicated and terminated by addition of 25 μl of 2× electrophoresis buffer (Invitrogen). [^32P]AMP was generated by incubation (37° C., 3 h) of 10 μM [^32P] NAD (10 μCi/reaction) with pyrophosphatase (40 units/mg from SIGMA, 1 mg/ml) in 25 μl of 50 mM KPO4, pH 7.5, and 10 mM MgCl2. [^32P] ADP-ribose was generated in a 25 μl mixture containing 50 mM KPO4, pH 7.5, 25 μg of activated CTA, 10 μM [^32P] NAD (10 μCi/reaction), 10 mM MgCl2, and 5 mM DTT, which was incubated at 30° C. overnight. [^32P] phosphoribosyl-AMP was generated by incubation (37° C., 3 h) of [^32P]poly(ADP-ribose) (5.5×10^5 cpm, ˜300 nM ADP-ribose) with Crotalus adamanteus phosphodiesterase (10 mU/reaction), 25 μl of 50 mM KPO4, pH 7.5, 10 mM MgCl2, and 5 mM DTT. Identities of AMP and ADP-ribose standards were confirmed by HPLC on C18 and SAX columns respectively.
High resolution Polyacrylamide Gel Electrophoresis (PAGE). Polyacrylamide (20%) gels (20×20×0.15 cm) containing polyacrylamide and bis(acrylamide), in a ratio of 19:1, 100 mM Tris-borate, pH 8.3, 2 mM EDTA, 4.4 mM ammonium persulfate, and 3.4 mM TEMED with electrophoresis carried out for 2 h at 400V with 50 mM Tris-borate, pH 8.3, 1 mM EDTA, before application of samples (15 μl) were used for analysis of poly(ADP-ribose) degradation. Subsequent electrophoresis at 400V was stopped when bromophenol blue (BPB) had moved 9 cm from the origin. Gels were exposed to X-ray films (Kodak).
HPLC analysis. HPLC, Hewlett-Packard series 1100 equipped with a diode-array spectrophotometric detector set at 254 nm, was used for separation of reaction products. For anion exchange perfusion chromatography, Zorbax SAX column (4.6×250 mm; DuPont, Wilmington Del.) was washed with 20 mM potassium phosphate, pH 4.5, for 30 min, followed by a linear gradient of 0-1M NaCl in the same buffer for 10 min (30-40 min), then same buffer with 1M NaCl for 10 min (40-50 min) at a flow rate of 1 ml/min. Nicotinamide was eluted at 3 min, NAD at 10 min, and ADP-ribose at 40 min. For reverse phase, Discovery C18 column (4.6×250 mm; SUPELCO, Bellefonte Pa.) was used. Samples were separated isocratically with 100 mM potassium phosphate, pH 6.0 containing 7% methanol at a same flow rate of 1 ml/min. ADP-ribose was eluted at 6 min, NAD at 8 min, nicotinamide 9 min.
Poly(ADP-ribose)PARP was used as substrate to assay potential poly(ADP-ribose) hydrolase activities of recombinant ARH1, 2 or 3. Products were identified by autoradiography and HPLC. Fractions (1 ml) were collected for liquid scintillation counting to quantify [^14C]ADP-ribose, which was eluted in fractions from 34 min to 43 min. Because ARH1 activity may require both DTT and Mg^2+, depending on species (Takada et al. (1993) J. Biol. Chem. 268:17837-17843; Moss et al. (1992) J. Biol. Chem. 267:10481-10488), these reactions were performed with or without 10 mM MgCl2, and/or 5 mM DTT. […] Degradation of [^32P]poly(ADP-ribose) by ARH3 was enhanced by 10 mM MgCl2 (FIG. 4A). Data were similar with mouse ARH3.
Samples of [^14C] ADP-ribosylated PARP (250 ng, 15,000 cpm, ˜850 nM ADP-ribose) were incubated at 37° C. (total volume, 100 μl) with human ARH3 as indicated. […]

B1: ARH3 (D77N/D78N): human ARH3 mutant with dual amino acid replacement D77N/D78N (protein)
chain: MAAAAMAAAAGGGAGAARSLSRFRGCLAGALLGDCVGSFYEAHDTVDLTSVLRHVQSLEPDPGTPGSERTEALYYTNNTAMARALVQSLLAKEAFDEVDMAHRFAQEYKKDPDRGYGAGVVTVFKKLLNPKCRDVFEPARAQFNGKGSYGNGGAMRVAGISLAYSSVQDVQKFARLSAQLTHASSLGYNGAILQALAVHLALQGESSSEHFLKQLLGHMEDLEGDAQSVLDARELGMEERPYSSRLKKIGELLDQASVTREEVVSELGNGIAAFESVPTAIYCFLRCMEPDPEIPSAFNSLQRTLIYSISLGGDTDTIATMAGAIAGAYYGMDQVPESWQQSCEGYEETDILAQSLHRVFQKS
- Poly(ADP-ribose) hydrolysis (in words): inactive; also recorded: No activity
